Experimental data from US20250019450A1 (DIAGONAL THERAPEUTICS, published 2025).
Values belong to the binder of their own block, whether it stands above or below them.

How the values were obtained:
[1] = target: human IL-12 receptor (IL-12Rβ1 and IL-12Rβ2) on HEK-Blue IL-12 cells (human, UniProt P42701 24-662; Q99665 24-862); assay: cell-based or functional assay
[2] = target: human IL-12Rβ1, Acro (BLI analyte) (human, UniProt P42701 24-545); assay: BLI (Octet), antibody on AHC tip
[3] = target: T1, human IL-12Rβ2, Acro (BLI analyte) (human, UniProt Q99665 24-622, limits assumed); assay: BLI (Octet), antibody on AHC tip
T1 sequence (looked up): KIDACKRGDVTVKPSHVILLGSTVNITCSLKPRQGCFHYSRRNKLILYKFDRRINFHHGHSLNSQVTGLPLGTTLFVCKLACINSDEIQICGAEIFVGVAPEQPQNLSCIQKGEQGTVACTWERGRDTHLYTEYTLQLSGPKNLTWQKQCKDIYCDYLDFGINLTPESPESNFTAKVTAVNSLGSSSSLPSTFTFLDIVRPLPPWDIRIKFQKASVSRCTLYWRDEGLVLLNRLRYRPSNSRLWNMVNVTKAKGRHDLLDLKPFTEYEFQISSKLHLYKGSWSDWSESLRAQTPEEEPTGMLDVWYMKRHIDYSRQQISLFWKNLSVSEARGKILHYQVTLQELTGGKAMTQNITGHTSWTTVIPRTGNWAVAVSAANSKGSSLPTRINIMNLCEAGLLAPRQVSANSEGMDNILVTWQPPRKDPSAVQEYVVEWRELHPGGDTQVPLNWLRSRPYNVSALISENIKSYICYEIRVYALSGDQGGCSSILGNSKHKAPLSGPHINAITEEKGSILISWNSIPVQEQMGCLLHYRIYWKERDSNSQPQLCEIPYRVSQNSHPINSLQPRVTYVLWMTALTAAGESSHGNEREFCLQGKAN

[4] = target: T2, human IL-12Rβ2-huFc-his (R&D system), biotinylated (human, UniProt Q99665 24-622, limits assumed, biotinylated); assay: ELISA, periplasmic extract
T2 construct: bought; captured on Neutravidin in the ELISA; also called Bio-huIL-12Rβ2-huFc-His
T2 sequence (looked up): T1 sequence (looked up)

[5] = target: T3, cyno IL-12RB2 with C-terminal HA tag, transiently expressed on HEK-293T cells (cyno, UniProt A0A2K5VNI7 24-860); assay: FACS, periplasmic extract, HEK-293T
T3 construct: whole, on cells; also called cyno IL-12Rβ2
T3 sequence: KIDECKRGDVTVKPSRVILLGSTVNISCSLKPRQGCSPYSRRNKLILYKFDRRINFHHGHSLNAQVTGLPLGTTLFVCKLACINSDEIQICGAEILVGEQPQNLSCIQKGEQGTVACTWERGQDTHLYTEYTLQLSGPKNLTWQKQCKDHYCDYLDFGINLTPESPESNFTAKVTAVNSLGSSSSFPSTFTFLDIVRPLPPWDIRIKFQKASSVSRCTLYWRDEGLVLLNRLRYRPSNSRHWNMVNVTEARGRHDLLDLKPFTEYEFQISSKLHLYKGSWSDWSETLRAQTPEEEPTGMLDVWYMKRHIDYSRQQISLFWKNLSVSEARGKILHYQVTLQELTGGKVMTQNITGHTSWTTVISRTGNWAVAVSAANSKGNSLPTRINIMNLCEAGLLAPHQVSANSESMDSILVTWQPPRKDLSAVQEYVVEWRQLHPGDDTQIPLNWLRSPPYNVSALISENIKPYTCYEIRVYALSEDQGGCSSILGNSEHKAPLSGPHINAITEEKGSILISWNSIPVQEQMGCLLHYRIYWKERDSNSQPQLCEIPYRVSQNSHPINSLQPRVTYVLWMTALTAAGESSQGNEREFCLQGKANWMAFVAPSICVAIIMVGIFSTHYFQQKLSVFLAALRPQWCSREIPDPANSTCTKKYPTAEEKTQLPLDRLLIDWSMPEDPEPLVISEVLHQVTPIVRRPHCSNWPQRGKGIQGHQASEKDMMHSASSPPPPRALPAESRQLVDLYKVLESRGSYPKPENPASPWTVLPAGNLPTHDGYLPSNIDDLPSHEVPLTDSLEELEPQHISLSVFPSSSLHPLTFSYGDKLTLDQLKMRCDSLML

EC50 [1]: 3.1e-09 M (implied)
Max Absorbance [1]: 0.64
Kd [2]: 5.49 nM
Kd [3]: 16.1 nM
B1: DGL487 (bispecific antibody, V domains shown)
V domain 1: QVQLVESGGGLVQAGGSLRLSCAASARIFNSYAVAWFRQTPGKEREFVASISWSGGSTNYADSVKGRFTISRDNAKNTVFLQMNSLKPADTAVYYCAADRNYYPSVLGKYTYWGQGTQVTVEP
V domain 2: QVQLQESGPGLVKPSQTLSLTCTVSGGSITTNYYYWSWIRQPPGKGLEWMGAIAYSGSTYYSPSLKSRTSISRDTSKNQFTLQLSSVTPEDTAVYYCASGINFYSNYPTLNEYDYWGQGTQVTVEP
notes: 67B1 x 190B2

EC50 [1]: 7e-09 M (implied)
Max Absorbance [1]: 0.61
Kd [2]: 27.4 nM
Kd [3]: 11.8 nM
B2: DGL607 (bispecific antibody, V domains shown)
V domain 1: QVQLVESGGGLMQAGGSLRLSCALSRGIFSAYAMGWFRQVQGKEREFVSGISRSGSTTDYVDTAKGRFTISRDNARDTVYLQMNSLKPEDTAVYYCAAVTGTFPSSTYHNANAYHHWGQGTQVTVEP
V domain 2: QVQLVESGGGLVQAGGSLKLSCAASGGTFSSYAMGWFRQAPGKEREFVAVIMRSGDTTAYVDSVKGRFTVSRDNAKNTVYLQMNSLKPEDAAVYFCAAGRPVTRTYYHTYTYPHDYDYWGQGTQVTVEP
notes: 86B1 x 278B2

OD450 nm [4]: 0.151
FOB [5]: 1.35 fold
B3: VHH93B2 (VHH)
VHH: QVQLVESGGGLVQPGGSLRLSCAASGFTFEPYDMSWFRQAPGKGPEWVSAIDKGGGAGATYYADSVKGRFTISRDNAKKTLYLQMKSLKPEDTAVYYCAITAGPYSDSTPRVAYRGEGTQVTVSS

OD450 nm [4]: 0.237
FOB [5]: 0.99 fold
B4: VHH219B2 (VHH)
VHH: QVQLEESGGGLVQAGGSLRLSCAASGRTFSSYVVGWFRQAPGKEREFVGRISWSGARTYYADSVEGRFTISRDNAKNTVYLQMNSLKPEDTAVYYCAADLKWEVLLSEHYEYWGQGTQVTVSS

EC50 [1]: 1.5e-10 M (implied)
Max Absorbance [1]: 0.61
Kd [2]: 8.96 nM
Kd [3]: 0.386 nM
B5: DGL444 (bispecific antibody, human IgG1, lambda)
heavy 1: not shown
heavy 2: QVQLVQSGAEVKKPGASVKVSCKASGYTFIGYYIHWVRQAPGQGLEWMGWINPHSGGTNYAQKFQGRVTMTRDTSISTAYMELSRLRSDDTAIYYCTKEANNWGYAFDIWGQGTMVTVSSASTKGPSVFPLAPSSKSTSGGTAALGCLVKDYFPEPVTVSWNSGALTSGVHTFPAVLQSSGLYSLSSVVTVPSSSLGTQTYICNVNHKPSNTKVDKKVEPKSCDKTHTCPPCPAPEAAGAPSVFLFPPKPKDTLMISRTPEVTCVVVDVSHEDPEVKFNWYVDGVEVHNAKTKPREEQYNSTYRVVSVLTVLHQDWLNGKEYKCKVSNKALPAPIEKTISKAKGQPREPQVCTLPPSRDELTKNQVSLSCAVKGFYPSDIAVEWESNGQPENNYKTTPPVLDSDGSFFLVSKLTVDKSRWQQGNVFSCSVMHEALHNRFTQKSLSLSPG
light: not shown
notes: 195B1 x 85802_08F20A

EC50 [1]: 2.7e-10 M (implied)
Max Absorbance [1]: 1.24
Kd [2]: 15.9 nM
Kd [3]: 0.321 nM
B6: DGL426 (bispecific antibody, human IgG1, lambda)
heavy 1: not shown
heavy 2: B5 heavy 2
light: not shown

EC50 [1]: 4.7e-09 M (implied)
Max Absorbance [1]: 0.59
Kd [2]: 10.6 nM
Kd [3]: 8.29 nM
B7: DGL551 (bispecific antibody, V domains shown)
V domain 1: QVQLVESGGGLVQAGGSLRLSCAASGRTFGTYAMGWFRQAPGKERDFVARISNSGAFTHYADSVKGRFTISRDNAKNTVYLHMNSLENGDTAAYYCVATRGTNSAYYTRSTMYEYWGQGTQVTVEP
V domain 2: QVQLVESGGGLVQAGGSLRLSCAASGRTFSRYRMGWFRQAPGKEREFVAAITKSGATTYDADSVKGRFTISRDNAKNTLYLQMNSLKPEDTAVYYCAASYHSNWWPKNADEYAYWGQGTQVTVEP
notes: 195B1 x 185B2

EC50 [1]: 7.7e-11 M (implied)
Max Absorbance [1]: 0.6
Kd [2]: 7.26 nM
Kd [3]: 0.768 nM
B8: DGL586 (bispecific antibody, V domains shown)
V domain 1: QVQLVESGGGLVQAGGSLRLSCAASGRTFSSYVMGWFRQAPGQEREFVAAIMRNGIMTYYADSVKGRFTISRDNAKNTVYLQMNTLKPDDTAVYYCAAASRVGVSISQSSSYTSWGQGTQVTVEP
V domain 2: QVQLVESGGGLVQPGGSLRLSCAASGFTFSNYAMSWVRQAPGKGLEWVSAINSDGTSTSYADSVKGQFTISRDNAKNTLYLQMNSLKPEDTAVYYCTKWEGDTDSDYKFKDYWGQGTQVTVEP
notes: 258B1 x 19B2

EC50 [1]: > 100 nM
Max Absorbance [1]: 1.28
Kd [2]: 11.3 nM
Kd [3]: 2.21 nM
B9: DGL412 (bispecific antibody, human IgG1, kappa)
heavy 1: not shown
heavy 2: QVQLVESGGGLVRPGGSLRLSCAASGFTFSSNGMHWFRQAPGKGLEWVSSIGSGGTSIYYADSVKGRFTISRDNAKNTLYLQMNSLKSDDTAVYYCSKEVTGATRGQGTQVTVEPKSSDKTHTCPPCPAPEAAGAPSVFLFPPKPKDTLMISRTPEVTCVVVDVSHEDPEVKFNWYVDGVEVHNAKTKPREEQYNSTYRVVSVLTVLHQDWLNGKEYKCKVSNKALPAPIEKTISKAKGQPREPQVCTLPPSRDELTKNQVSLSCAVKGFYPSDIAVEWESNGQPENNYKTTPPVLDSDGSFFLVSKLTVDKSRWQQGNVFSCSVMHEALHNRFTQKSLSLSPG
light: DIQMTQSPSSLSASVGDRVTITCRASQGIGNYLAWFQQRPGKAPKSLIYAASSLQSGVPSKFSGSGSGTDFTLTISSLQPADFAIYYCQQYNIYPYTFGPGTRLEIKRTVAAPSVFIFPPSDEQLKSGTASVVCLLNNFYPREAKVQWKVDNALQSGNSQESVTEQDSKDSTYSLSSTLTLSKADYEKHKVYACEVTHQGLSSPVTKSFNRGEC
notes: 85801_05G01A x 13B2
